Here are results for four substances from article PMC5696030.

Some targets named below: Gly189Arg NFU1 (human) (UniProt Q9UMS0); Gly189Ala NFU1 (human) (UniProt Q9UMS0); Gly189Lys NFU1 (human) (UniProt Q9UMS0).
Holding throughout (experiment): AUC
In test [1] the target is native human NFU1 (human) (UniProt Q9UMS0).

As usually defined, the stoichiometry N is the number of molecules, sites or subunits per partner or assembly. As for “Gly189Arg NFU1 (from UniProt Q9UMS0 10-254) (natural protein)”, in the test with Gly189Arg NFU1 (human), the percent dimer was found to be 4%, the percent dimer with 1 mM TCEP was found to be 4%, the percent monomer worked out at 95% and the percent monomer with 1 mM TCEP is 94%. The substance also returned a stoichiometry N with Gly189Arg NFU1 (human) of 2.

In test [1], “native human NFU1 (from UniProt Q9UMS0 10-254) (natural protein)” came in with a percent dimer of 52%, a percent dimer with 1 mM TCEP of 44%, a percent monomer of 45% and a percent monomer with 1 mM TCEP of 44%.

With “Gly189Ala NFU1 (from UniProt Q9UMS0 10-254) (natural protein)”, in the test with Gly189Ala NFU1 (human), the percent dimer was determined as 3%, the percent dimer with 1 mM TCEP stood at 3%, the percent monomer was 95% and the percent monomer with 1 mM TCEP came out at 95%. Further, the stoichiometry N with Gly189Ala NFU1 (human) worked out at 2.

In the test with Gly189Lys NFU1 (human), “Gly189Lys NFU1 (from UniProt Q9UMS0 10-254) (natural protein)” came in with a percent dimer of 5%, a percent dimer with 1 mM TCEP of 6%, a percent monomer with 1 mM TCEP of 89% and a stoichiometry N of 2.
